Source: patent publication US20020156112A1, “Endostatin-like angiogenesis inhibition” (priority 2000, published 2002)

T1: irrelevant FLR-peptide (Homo sapiens, UniProt P15941, R1131P)
T1 construct: ID No. 2: FLR peptide
T1 sequence (P15941 with tags, fused parts or gaps R1131P): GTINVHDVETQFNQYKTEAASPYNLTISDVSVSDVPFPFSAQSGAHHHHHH


How the values were obtained:
GST-bound colloids = experiment: Colloid/colloid linkage colour-change assay on NTA colloids, negative control protein (Example 7); assay type: binding; conditions: 100 ul or 50 ul protein; room temperature
Method: (§1) 600 microliters colloids, derivatized with a self-assembled monolayer that presents nitrilo tri-acetic acid, NTA (for the capture of histidine-tagged proteins), was mixed with 60 microliters of 500 micromolar histidine-tagged RGD-motif-containing peptide. 600 microliters of a second set of NTA-Ni presenting colloids was mixed with 60 ul of a 500 uM solution of histidine-tagged GST, an irrelevant protein, as a negative control. Colloids were spun down and resuspended in phosphate buffer to remove residual unbound protein or peptide. Endostatin and Angiostatin, two proteins implicated in angiogenesis and suspected of binding to regions of vitronectin, such as the RGD peptide, were prepared by dialysis into phosphate-buffered saline solution and then 1:10 dilution into PBS from a stock concentration of 1 mg/mL.
(§2) 400 ul phosphate buffer (pH 7.4), 200 ul either RGD-bound colloids or GST-bound colloids, and either 100 ul endostatin or angiostatin, 50 ul endostatin or angiostatin/50 ul phosphate buffer, or 100 ul phosphate buffer (as a negative control) were added to each well of a crystallization dish. Color change was monitored over time at room temperature. […] The histidine-tagged proteins were then eluted using imidazole, and the samples were analyzed by SDS-PAGE.

[1] = test system: RGD-peptide-bound colloids; experiment: Colloid/colloid linkage colour-change assay on NTA colloids (Example 7); assay type: binding; conditions: 100 ul or 50 ul protein; room temperature, after approximately 15 minutes
Method: as §1, §2

[2] = test system: His-tagged GRGDS motif peptide; experiment: NTA-Ni agarose pull-down with SDS PAGE of eluate and flow through (Example 2); assay type: binding; conditions: 0.1 mg/mL protein; imidazole (250 mM) elution
His-tagged GRGDS motif peptide, sequence (as listed by the source): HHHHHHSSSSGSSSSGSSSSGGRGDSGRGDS
Method: 200 μL NTA-Ni agarose (Qiagen) were washed 2× with 100 μL ddH20, then with wash buffer A, containing 50 mM NaH2PO4, 300 mM NaCl, and 10 mM imidazole at pH 8.0.
A synthetic peptide, was dissolved in DMSO then diluted in phosphate buffer to a final concentration of 1 mM. 100 μL of this peptide solution was incubated with the NTA-Ni resin for 20 minutes at room temperature to allow binding of the histidine-tagged peptide to the NTA-Ni resin. The resin was then pelleted and the supernatant was removed. The resin was washed in buffer A. The peptide bound resin was then divided into two aliquots. A first aliquot was mixed with 100 μL human recombinant endostatin (0.1 mg/mL in 10 mM sodium phosphate buffer, 100 mM sodium chloride, pH 7.4, diluted from stock endostatin, Calbiochem 324746). A second aliquot was mixed with 100 μL human angiostatin, Calbiochem 176700(0.1 mg/mL in 10 mM sodium phosphate buffer, 100 mM sodium chloride, pH 7.4. The beads and angiogenesis inhibitors were incubated on ice 15-20 minutes to allow binding to the bead-immobilized peptide. The resin was then pelleted. The supernatants were removed and reserved for analysis by SDS PAGE (flow through). The beads were then washed 2× with 10 mM sodium phosphate buffer. The histidine-tagged peptides and any immobilized drug were eluted by the addition of 4 aliquots of an imidazole (250 mM) wash.

resin-immobilized GST = experiment: NTA-Ni agarose resin binding verified by SDS-PAGE, control (Example 7); conditions: imidazole elution
Method: as §2, with “The color change was more pronounced in the well that contained 100 ul endostatin than in the well that contained 50 ul endostatin/50 ul phosphate buffer. […] The results were verified by gel electrophoresis. The RGD peptide and histidine-tagged GST were bound to a small amount of NTA-Ni agarose resin at saturating concentration. Endostatin was incubated with the resin and allowed to bind to the protein on the resin. The” for “The”

[3] = test system: resin-immobilized RGD peptide; experiment: NTA-Ni agarose resin binding verified by SDS-PAGE (Example 7); conditions: imidazole elution
resin-immobilized RGD peptide, sequence (as listed by the source): as above
Method: as §2, with “The color change was more pronounced in the well that contained 100 ul endostatin than in the well that contained 50 ul endostatin/50 ul phosphate buffer. […] The results were verified by gel electrophoresis. The RGD peptide and histidine-tagged GST were bound to a small amount of NTA-Ni agarose resin at saturating concentration. Endostatin was incubated with the resin and allowed to bind to the protein on the resin. The” for “The”

irrelevant FLR-peptide = biological target: T1, irrelevant FLR-peptide; experiment: Gold colloid colour-change binding assay, control colloids (Example 6); conditions: endostatin 0.1 mg/mL; wells A3, A4
Method: (§3) 40 μM NTA gold colloids were prepared which presented the His-tagged RGD peptide (Sequence ID No.1, see Table 1). These colloids were mixed with endostatin (0.1 mg /mL) and turned blue, indicating binding of endostatin to the GRGDS peptide (A1, A2, FIG. 6). Control colloids presenting an irrelevant FLR-peptide (Sequence ID #2, see table 1) remained pink (wells A3, A4). At the highest concentration of vitronectin (0.1 mg /ml), the endostatin—GRGDS interaction is disrupted, and the well remains pink (B1). At lower concentrations of vitronectin, the endostatin—GRDS interaction is not affected and the wells turn blue (B2-B5).

GRGDS peptide = experiment: Gold colloid colour-change binding assay, RGD peptide colloids (Example 6); conditions: endostatin 0.1 mg/mL; wells A1, A2
GRGDS peptide, sequence (as listed by the source): as above
Method: as §3

Molecule	colour change of GST-bound colloids (GST-bound colloids)	colour change of RGD-peptide-bound colloids [1]	co-elution with GRGDS motif peptide (SDS PAGE) [2]	binding to resin-immobilized GST (SDS-PAGE) (resin-immobilized GST)	binding to resin-immobilized RGD peptide (SDS-PAGE) [3]	colloid colour (binding to FLR peptide) (irrelevant FLR-peptide)	colloid colour (binding to GRGDS peptide) (GRGDS peptide)
angiostatin: human angiostatin, Calbiochem 176700, angiogenesis inhibitor protein (protein) YLSECKTGNGKNYRGTMSKTKNGITCQKWSSTSPHRPRFSPATHPSEGLEENYCRNPDNDPQGPWCYTTDPEKRYDYCDILECEEECMHCSGENYDGKISKTMSGLECQAWDSQSPHAHGYIPSKFPNKNLKKNYCRNPDRELRPWCFTTDPNKRWELCDIPRCTTPPPSSGPTYQCLKGTGENYRGNVAVTVSGHTCQHWSAQTPHTHNRTPENFPCKNLDENYCRNPDGKRAPWCHTTNSQVRWEYCKIPSCDSSPVSTEQLAPTAPPELTPVVQDCYHGDGQSYRGTSSTTTTGKKCQSWSSMTPHRHQKTPENYPNAGLTMNYCRNPDADKGPWCFTTDPSVRWEYCNLKKCSGTEA	No color change	No color change	did not				
endostatin: human recombinant endostatin (Calbiochem 324746), known angiogenesis inhibitor protein, a dimer in its functional form (protein, UniProt P39060 1572-1754, looked up, Endostatin) Endostatin: HSHRDFQPVLHLVALNSPLSGGMRGIRGADFQCFQQARAVGLAGTFRAFLSSRLQDLYSIVRRADRAAVPIVNLKDELLFPSWEALFSGSEGPLKPGARIFSFDGKDVLRHPTWPQKSVWHGSDPNGRRLTESYCETWRTEAPSATGQASSLLGGRLLGQSAASCHHAYIVLCIENSFMTASK	No color change	color change from red to blue	co-eluted	did not bind	bound	remained pink	turned blue
